# Assay results published in the NTF2 design screens of Basanta et al. (2020).
# Experiment: protease stability score; higher = more stable; yeast display proteolysis, trypsin and chymotrypsin;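 also: relative to predicted unfolded state with 0 unfolded-like and 1 meaning tenfold more protease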
row,Sequence,protease stability score
1,SEDEEHAREFIKILFELLLTGDFKARLERLDPHTRLDVDGKDVHGMENINDLWLRIVEKYKNIQIHFHIHDVSIIGDKIHLHVHVEINVNGVNLRHEELTIVQKFNGKWIIKERHYI,1.38
2,DEEEEVLKTYLKLLIDALRTGDEHTMTRLIDPHARTHQGDKEIHGRKSMEELNKRYPNVRVDIRHISEVGDKITIDAVLHVGDKRYEIVIIAWKVNGRWEHTEFEFR,0.808
3,SQIEEDIRRQLKRFNDALTTGDEDEIMNLFDPDVRWIQGNYEHHGREFYLEMFREWRTHSIRIDIDRMEIQGDKVTLHTRFTVDGEFNGRRITEQYELVFIARKIDGRWVFREVRIK,2.4
4,TEEEKDSDDAFRHWVHSMRTGDEDRLRELIDPNARLLVNGRELHGMEWIITILSKEIKELRFKDVRLRDRDIVGNYAEVDVEIDMTIGEKEDSRDVVIFVLKVNGRWVIKEMHIR,1.46
5,DEDERLLRDHLKLFQDAVRTGDEEVLSELLDPNVRLHIGDKTIHGREIVIDILRTEMRHLGVDYDETHLHHINIQGEWVHLHTELRLKVNGQRITLWTRLYLYKIDGKWIVTQIQLH,2.3
6,DEEKHELEERVRLHIERWKTGDEDTLRHYADPDVRTHIDVGDKKFNYHGREEIVQAYKHLLDQLGVKHSEIDRSTAVNGVVHLHMTLRFDGVRMEWRIDIWIIDGRTKTIHIEIRHR,0.942
7,SEDEESSEKAAKFWLEMLRTGDWEEFERLADPNTKTHQGDKTIHGMEIVIEILMRVKGARVDTTHVRIDVQGDFVIFDVDNILNINGVHTEIRIHLRVLKVNGRWRVKELTIKHK,1.57
8,SEDEEAVRRLIRMLVEWESTGDFESVLRLFDPHARYRIDGVDLHGRHAWERLYKEIRINSVRVKRIEMQGDKVHVDSRLRGEIDGRETDLEVEIIIRKVNGRWVIEEVRIH,2.2
9,DESREIAHKFLEIWIDAFKTGDEDLNSELLDPNTRRDVGDFRIHGMELIVKIMSKELEKYKGITFRVKIRHSTWQGDKIHLIVDILIIIGDKEERIETHFILEKIDGRWITTHMQIR,1.34
10,DEFRKDADRALHMFEDKIRTGNWRELDKLLDPHVRFEYGDKIHHGREQFKYFMDRYDHITARDHKIDHVEFQGDYLHMDTTVDGELFIDGKNIRIVNKSKLVLLKVNGRWTMHFLSHD,0.818
11,SEEKEMVLHLAELLIELEFTGNWEKLFELADPNVLSRINGRELHGMEKHRKHWEEIRIHRVHIEKVHIETIGDKAKLDIHGRLDGEVNGVRDISESVIHIVSRKYDGRWIVKSIEIRVH,1.22
12,DETHVQMERFIEEHIKSHITGDEDYLRENIDPEARVVIDGQTYHGWKAIKDAIDQWRVTDMRIRHVRVQGEKVDIHGRLHVDVNGRNIDLEVRIIVTKVDGRWVVDQLIFN,1.16
13,DEIYEDIKHIVDLLSHAHETGDEHELKHLADPNVKWIINGVELVGWEDFRKLLEHLRHKRVHMDPRDVKRQGDYIHVTAELRFTGVFNGREREETFEVHLHMKKVNGRWLLTSVRVK,1.48
14,DDWHEEMREMLELLLRALFTGDEKHLVENLDPNVKIIFDGKDLHGRRDASKLIHEYGVDHITRHKIHDSKFFNGRLDVDGIFDQTVNGRREEVHRRIILLKFDGRWWIHRIEIR,1.63
15,DEHKKESKETAEIVMELRKTGDWDEFSRLADPNVKIDVDVNGKRINNIGWESFVEFVLKERDEWRLEDYKIRDIRVIDGVAEIDGEITGVFNGQREKREFRIIVVVVNGRLKSVQLKFK,1.29
16,NEEKETADTFLRHLVHRLHTGDEDMLMRLADPHVLIIQGDKTYHGWHWFERNFLEQINRFKGLTVKVERKDVHLFENRLILEGTLHLEFNGRDVHIEQEIIVHKINGRWILTHYMLI,0.813
17,DERESFIKEVMEQFNRDLLTGDEEHFKERADPDVKIIFDGRETHGWKVLHHLLREIRIRHMHIDDYDIQGDKARVHSTADVEYGDKEDELKIEIRLVVINGRLKEVSIIFR,1.16
18,SEEEEIYHKLAEWSKRVLETGDWREWRKLADPNTRLHVHVNGRQLDHHGRELVLTIFLWLYKHLGVKHVDERDLDYYGNKIDIHVDDRYDGRTIHNRIILFIIDGKVTSTTVHIEHE,1.38

row,Sequence,protease stability score
1,SEEEQLVQSAIEITVEALQTGDEHKIREMLDPHVKVRINGQDTHGWEVMEVFMKELGIKHIRVHIEHVNVQGEKVEVKGRVIINFNGRHYEREHWIIIFKIDGRWVNDSIEYI,2.12
2,DELTEILKHAVERLLRHIVTGDEDSVSELADPNVKVDFNGQEYHGMHFFSHLASRFKGLRLELTELHSVGNYMDTRMHVEVNGKNIELILHSKKVNGKWSLERSEFH,1.26
3,DEITRELKHIFEEVIRAILTGDWRRLHHLLDPRVRSKFEFENRHVDLHGMETVLHWMERWSQELRVEDFHLNDFRVIGDYIVLDGRVQNRQGDKKIDVRVELIVFVVNGKVTELRETSR,1.17
4,DEDEEREKVYHELHLHNLLTGNEEILANLVDPHVLSIVNGKELHGMDEVRKLWQELGWTWHDIHIHDEKRIGNKVHIDVRLNGNINGRTMIVRAKITITKINGRWYVSHIEII,0.718
5,SEHKEEVHEMIKLFLEALRTGDEDWLKTMIDPNDRIRVGDKELHGREEFDKIVHFFKNARIHLHHYSVINGRVTIHMILHFNGKTFEIHIYAEKVDGRWRHRESEMHER,1.38
6,DTDKKHIQNVLRLLSTLEHTGDWEALKELADPNVRVVVNGQEIHGRDMFNKHFEELRINDSRMILRDFEVQGDKIHVEGEVEFDGIIDGREKRFVRHVRIINVKIDGRWVIREIQVR,1.62
7,TELEHKAIEVVEAVFRNLHTGDESLLQELFDPNTKSLIDGVSVVGMHEIYKTIKHLRIEFESIEVHHITNVNGVLLLDVTLRERYRINGVEDEKQTRVHIIVRKIDGRWHLEHVRFH,1.48
8,DETTEHMVHFFKETLHAIRTGDFKAQEELFDPNARVDVGDYKFHGRETISEWLRRRNEQLGFKHIEIRINHVEYINGKISVIGSVDSDINGVRIRHERREEYVVINGVLTLVRLEHR,1.12
9,DDEKEILRIAIEWSELVSNTGDEKTVEHLADPHVRIHYGDKDYVGRERMVEFVHRFKNLKLEIKDTDVQGEYIHVNGKMKFNGRTFDVEIVVFKIDGVWFEKSVEFK,1.38
10,DESDKYVHHVAELMIEWFLTGDEELFEEYADPNMRVIFENHENHGREEVMKHMHDWWRKVKNVRVEYRIRDVQFQGDKARIEGELIIRIDGRNVIREVEYHILVIDGVLHSYKLVYK,1.47
11,DETFEWANIAIEHLIHSARTGDEKTFEEMADPDTRFLYNGQIIIGREEVNKMLSTVLREIRLEDVQVKRIEVYDGRVHSDMTRQGEFDGRHFTSKTEFIVHKVDGRWSIKEIRIT,0.89
12,LEEKDEVHHIVDRLFKVLMTGDFEILRHLLDPDDRLKIDINGRQIDLHGREEVVHWVIHELRELRIELRVKRVHHTENHYVADTRLHIRQGDKEFVHETEWRILIIDGKNKEWRIIVH,1.38
13,REEEEHAEYVIRVWERLLETGDEHEVARLLDPEVRLNIDGVDIHGREDIIRWLKHIRIEIEDSDHKRIEVQGEKIHLDGHRKEVIHVGDKKIRREHRIKLELVWIDGKITSLNVVLH,1.24
14,DEEHRKLKKFVRESMEDHRTGDEDRRNELLDPNVRIEIGDKTFHGREDDKKWLEEFGVDHVEIRIRHIDIIGNKAIIDSELRIFVNGRILEFDTIIYAEKYDGRWVHHSVQVR,0.077
15,DDMEKETRQFTKLWIEALETGDEDFIKHLVDPHAKITVNGVEYHGMESMKDELKKIKNVRMEIKDVRVFNGVSKIDMESHFDGRTHDTRIEIFVVDGRFKEVRLHIR,1.01
16,SERDRHNEEMARHFIRLFLTGDWDDFQHLFDPNVRTHIDGRDYHGWRSTLEAVRTLEREIRIEEIRVEHVDTQGDFIHQDTKVDFNVNGQRVIRESKVHIYEVNGRIKEIEMHYH,0.486
17,DEDKEWAHRILEHFLDNLRTGNEERLEELADPNTRVVIDGQEEHGMHVFNTLHKELRIDRIHLTSWDIQGDKLHLDVRVDGTFNGQREVTRVHIYFRVVNGRVKDIQIHVI,1.8
18,DERDELVEIVFRLYLRLLTTGDEQEWHHLADPDTRLHIGDKDFHGRENVNKHRRDNLERVKGIKLRDVKITQVHLIDGVLHIDIRLDVEYDGRRTELKVRVISEKVDGKWFIKSIIIE,1.44
